Each block holds one molecule with its values, some of them ahead of it.
How the values were obtained:
Assay type in all cases: biochemical, porcine
[1] = target: T1, TRH-DE (Sus scrofa, UniProt A0A287AP33); assay: HPLC assay of peptide hydrolysis by TRH-DE (Glp production)
T1 construct: The inventor purified TRH-DE from porcine brain according to purification procedures previously published by Dr. K. Bauer; from tissue; host or cells: porcine brain (TRH-DE); bovine kidney (DPP-IV, gift from Dr. C. H. Williams)
Procedure, shortened: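 Porcine brain TRH-DE incubated with 1 mM peptide in 20 mM potassium phosphate, pH 7.5, 37 °C: screen with 0.8 μg enzyme for 18 h; rate microassays with 0.8-3.2 μg enzyme for 5 min to 18 h, in triplicate. Reactions stopped with TFA; Glp quantified by C-18 reverse-phase HPLC, UV 206 nm.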

[2] = target: T1, TRH-DE; assay: discontinuous fluorometric TRH-DE assay with TRHAMC as substrate; settings: measured indirectly, peptide treated as competitive inhibitor of TRHAMC hydrolysis; non-linear regression; mean±S.D.
Method: (§1) The inventor purified TRH-DE from porcine brain according to purification procedures previously published by Dr. K. Bauer, (Max-Planck-Institut, Hannover, Germany) (1). TRH-DE was purified almost 20,000 fold. […] Dipeptidyl peptidase IV (DPP-IV) (EC 3.4.14.5), purified from bovine kidney (7.7 mg ml^−1, specific activity of 17.5 U mg^−1 with Gly-ProAMC as substrate), was obtained as a gilt from Dr. C. H. Williams (Queen's University Belfast, U.K). (DPP-IV was used as the coupling enzyme used in the fluorometric assays).
(§2) One unit (U) of enzyme activity was defined as that amount catalysing the formation of one μmol of product in one minute under the standard conditions employed. […]
(§3) Determination of inhibitor constants for selected TRH-DE substrates—The HPLC assay lacked sufficient sensitivity for determining kinetic constants. […] This assay employs TRHAMC as the substrate and depends on the measurement of the fluorescence of 7-amino-4 methyl coumarin (AMC) produced as follows:
We have shown that the amount of AMC formed under these conditions is a quantitative measure of TRHAMC cleavage (23). Initial rates for the hydrolysis of TRHAMC by TRH-DE were determined in triplicate at five different substrate concentrations both in the absence and presence of at least three concentrations of peptide. […]

[3] = substrate: Cc1cc(=O)oc2cc(NC(=O)[C@@H]3CCCN3C(=O)[C@H](Cc3c[nH]cn3)NC(=O)[C@@H]3CCC(=O)N3)ccc12; assay: continuous coupled fluorometric TRH-DE assay (TRHAMC substrate, DPP-IV coupling enzyme); settings: other: Michaelis constant of TRHAMC, non-linear regression, pH 7.5, 37.0 °C
Method: as §1, §2
The reaction was monitored continuously by measuring the increase in AMC fluorescence. A linear progress curve with no discernible lag period was observed when the reaction was monitored over a period of 10 minutes. […]
In a preliminary experiment, the peptides were screened for their ability to inhibit TRH-DE activity. The initial rate of TRHAMC hydrolysis by TRH-DE was measured by incubating 5 μM TRHAMC with 1.23 μg DPP-IV and 0.32 μg TRH-DE, both in the absence and presence of each library peptide (1 mM final concentration) under standard assay conditions (23). […]
Fluorescence measurements were made using a Perkin Elmer LS 50B Luminescence Spectrometer fitted with a thernostated cell holder. […]

[4] = substrate: NC(=O)[C@@H]1CCCN1C(=O)[C@H](Cc1ccccc1)NC(=O)[C@@H]1CCC(=O)N1; assay: discontinuous fluorometric TRH-DE assay with TRHAMC as substrate; settings: other: measured indirectly, peptide treated as competitive inhibitor of TRHAMC hydrolysis; non-linear regression; mean±S.D.; pH 7.5; 37.0 °C
Method: as §1
(§4) One unit (U) of enzyme activity was defined as that amount catalysing the formation of one μmol of product in one minute under the standard conditions employed. All incubations in the assays described below were carried out in 20 mM potassium phosphate buffer, pH 7.5, at 37° C.
as §3
(§5) We have shown that the amount of AMC formed under these conditions is a quantitative measure of TRHAMC cleavage (23). Initial rates for the hydrolysis of TRHAMC by TRH-DE were determined in triplicate at five different substrate concentrations both in the absence and presence of at least three concentrations of peptide. Ki values were obtained by non-linear regression analysis of the data collected. Determined in this way (i.e. by treating the peptide substrates as inhibitors of TRHAMC hydrolysis), these Ki values correspond to the Michaelis constants for those library peptides hydrolysed by TRH-DE (32).

[5] = substrate: Cc1cc(=O)oc2cc(NC(=O)[C@@H]3CCCN3C(=O)[C@H](Cc3c[nH]cn3)NC(=O)[C@@H]3CCC(=O)N3)ccc12; assay: as above; settings: other: Michaelis constant of TRHAMC measured directly, discontinuous assay; pH 7.5; 37.0 °C
Method: as §1, §4, §3, §5

[6] = substrate: NC(=O)[C@@H]1CCCN1C(=O)[C@H](Cc1ccc(O)cc1)NC(=O)[C@@H]1CCC(=O)N1; assay: as above; settings: other: measured indirectly, peptide treated as competitive inhibitor of TRHAMC hydrolysis; non-linear regression; mean±S.D.; pH 7.5; 37.0 °C
Method: as §1, §4, §3, §5

- Vmax ([1]; estimated from HPLC rates of hydrolysis using Vmax=vo{(Km+[S])/[S]}): 2.19 ± 0.16 (6) U mg^−1
- Rate of hydrolysis ([1]; peptide 1 mM, 37° C., Glp production by HPLC, mean±S.D.): 2.12 ± 0.16 (6) U mg^−1
- Km [2]: 34 ± 6 µM
Molecule: Glp-Thi-ProNH2

B1: TRH-DE (Sus scrofa) (protein)
chain: MALDGERGEQEEEKKKKKKKKKRKKKKEEEGAKKSSSPFVATMGENDAALRAGGRGLSDPWADSVGVRPRTTERHITVHKRLVLAFAVSIVALLAVTMLAVLLSLRFDECGASIPPGADGGPAGFPARGGNESLPGSSRRDHHAGGDSSQPGAGREDTPETPSAQPPSEEEQEQWQPWTQLRLSGHLKPLHYNLMLTAFMENFTFSGEVNVEIACRNATRYVVLHASRVAVEKVQVAEDRVAGAVPVAGFFLYPQTQVLVVVLNRTLDAQRNYNLKIIYNALIENELLGFFRSSYVLHGERRFLGVTQFSPTHARKAFPCFDEPIYKATFKISIKHQATYLSLSNMPVETSVFEEDGWVTDHFSQTPLMSTYYLAWAICNFTYRETTTKSGVVVRLYARPDAIRRGSGDYALHITKRLIEFYEDYFKVPYSLPKLDLLAVPKHPYAAMENWGLSIFVEQRILLDPSVSSISYLLDVTMVIVHEICHQWFGDLVTPVWWEDVWLKEGFAHYFEFVGTDYLYPGWNMEKQRFLTDVLHEVMLLDGLASSHPVSQEVLRATDIDRVFDWIAYKKGAALIRMLANFMGHSVFQRGLQDYLTIHKYGNAARNDLWNTLSEALKRNGKYVNIQEVMDQWTLQMGYPVITIFGNTTAENRIIITQQHFIYDISAKAKPHELQNSSYLWQIPLTIVVGNRSHVSSEAIIWVSNKTEHHRITSLNKGSWLLGNINQTGYFRVNYDLRNWRLLIDQLIRNHEVLSVSNRAGLIDDAFSLARAGYLPQNIPLEIIRYLSEEKDFLPWHAASRALYPLDKLLDRMEKYNVFNEYILKQVATTYIKLGWPKNNFNGSLVQASYQHEELRREVIMLACSFGNKHCHQQASTLISDWISSNRNRIPLNVRDIVYCTGVSLLDEDVWEFIWMKFHSTTAISEKKILLEALTCSDDRNLLNRLLNLSLNSEVVLDQDAIDVIIHVARNPHGRDLAWKFFRDKWKILNTRYGEALFMNSKLISGVTEFLNTEGELKELKNFMKSYDGVAAASFSRAVETVEANVRWKMLYQDELFQWLGKALRH
notes: The inventor purified TRH-DE from porcine brain according to purification procedures previously published by Dr. K. Bauer; from tissue; host or cells: porcine brain (TRH-DE); bovine kidney (DPP-IV, gift from Dr. C. H. Williams)
- Km [3]: 3.5 ± 0.4 µM
- Km [4]: 55 ± 8 (3) μM
- Vmax [4]: 1.64 µmol/min/mg
- Vmax/Km [4]: 30000 µL/min/mg
- Km [5]: 3.1 ± 0.5 µM
- Vmax [5]: 0.11 µmol/min/mg
- Vmax/Km [5]: 40000 µL/min/mg
- Km [6]: 15 ± 3 (4) μM
- Vmax [6]: 0.67 µmol/min/mg
- Vmax/Km [6]: 50000 µL/min/mg

Reference: patent US7378397B2 (The Provost, Fellows and Scholars of the College of the …, priority 2000, dated 2008)
